One assay has as its system Arabidopsis. The assay can be described thus: Effective dose distinguishing sensitive from resistant Arabidopsis. It is filed as in vivo.
The subject of assay [1] is Arabidopsis T1 plants transformed with 24DT02 nucleotide sequence. Kind of assay: Herbicide resistance effect test of transgenic Arabidopsis T1 plants (24DT02). The note with it: for resistance levels to 2,4-D dimethyl ammonium salt and agroxone, compared among the sequences: Arabidopsis T1 plants transformed with the respective sequence. Format: in vivo, Arabidopsis thaliana. As to the method: On 7 days after planting (DAP) and 11 DAP respectively, the T1 plants (cotyledon stage and 2-4 leaves stage, respectively) were sprayed with 0.2% of Liberty herbicide solution (200 g ai/L glufosinate-ammonium) using DeVilbiss compressed air nozzle at a spraying volume of 10 ml/disc (703 L/ha) so as to provide effective amount of glufosinate-ammonium (280 g ai/ha) for each application. The survival plants (actively growing plants) were verified 4 to 7 days after the last spraying and transferred into the square pot (7 cm×7 cm) made from vermiculite and horses dung (3-5 plants per pot). The transplanted plants were covered with moisturizing mask for 3-4 days and placed in culture room at 22° C. or directly into the greenhouse as described above. Then the mask was removed and the plants were planted in greenhouse (22±5° C., 50±30% RH, 14 hours of lighting: 10 hours of darkness, minimum […] natural light+complement light) at least one day before testing the ability of 24DT02 to provide the resistance to phenoxy auxin herbicide.
24DT02 gene was used to transform Arabidopsis for the first time. At first, T1 transformants were selected from the background of un-transformed seeds, using glufosinate-ammonium selection scheme. About 40000 T1 seeds were screened among which 195 strains of T1 generation positive transformants (PAT gene) were identified, i.e. the transformation efficiency was about 0.5%. Herbicide resistance effect tests to 2,4-D dimethyl ammonium salt and agroxone of Arabidopsis T1 plants transformed with 24DT02 nucleotide sequence, substituted 24DT02 nucleotide sequence, truncated 24DT02 nucleotide sequence, added 24DT02 nucleotide sequence, control nucleotide sequence respectively and wild-type Arabidopsis plants were performed after 18 days of planting.
Arabidopsis T1 plants transformed with 24DT02 nucleotide sequence, substituted 24DT02 nucleotide sequence, truncated 24DT02 nucleotide sequence, added 24DT02 nucleotide sequence and control nucleotide sequence respectively and wild-type Arabidopsis plants were sprayed with 2,4-D dimethyl ammonium salt (560 g ae/ha, 1-fold concentration in field), agroxone (560 g ae/ha, 1-fold concentration in field) and blank solvent (water). Resistance conditions of the plants were counted 7 days and 14 days after spraying. Plants with growth conditions consistent with blank solvent (water) 7 days after spaying were classified as highly resistant plants; Plants with curly rosette leaves 7 days after spaying were classified as moderately resistant plants; Plants incapable of bolting 14 days after spaying were classified as low-resistant plants and the dead plants 14 days after spaying were classified as non-resistant plants. Because each Arabidopsis T1 plant was an independent transformation event, significant differences of individual T1 responses were expected under a given dose.

In assay [2] the test system is corn plants transfected with 24DT02 nucleotide sequence. The assay can be described thus: Herbicide-resistance effect test of transgenic corn plants (24DT02; strains S1-S3). Format: in vivo, maize. The note with it: for resistance levels against 2,4-D dimethyl ammonium salt and agroxone, compared among the sequences: corn plants transformed with the respective sequence. As to the method: Herbicide resistance effects tests to 2,4-D dimethyl ammonium salt and agroxone of maize plants containing 24DT02 nucleotide sequence, 24DT02 substituted nucleotide sequence, 24DT02 truncated nucleotide sequence, 24DT02 added nucleotide sequence, control nucleotide sequence respectively and wild type maize plants (stages V3-V4) were performed respectively.
Maize plants containing 24DT02 nucleotide sequence, 24DT02 substituted nucleotide sequence, 24DT02 truncated nucleotide sequence, 24DT02 added nucleotide sequence, control nucleotide sequence respectively and wild type maize plants were taken and spayed with 2,4-D dimethyl ammonium salt (8960 g ae/ha, 16-folds concentration in field), agroxone (8960 g ae/ha, 16-folds concentration in field) and blank solvent (water) respectively. Prop root development was counted 21 days after spaying. Three strains (S1, S2, and S3) of corn plants transfected with 24DT02 nucleotide sequence, two strains (S4 and S5) of corn plants transfected with 24DT02 substituted nucleotide sequence, two strains (S6 and S7) of corn plants transfected with 24DT02 truncated nucleotide sequence, two strains (S8 and S9) of corn plants transfected with 24DT02 added nucleotide sequence, two strains (S10 and S11) of corn plants transfected with control nucleotide sequence and 1 strain of wild type (CK) corn were selected and 10-15 plants from each stain were tested.

Consider `O=C(O)COc1ccc(Cl)cc1Cl` [2,4-D, 2,4-dichlorophenoxyacetic acid], for which, in the assay on Arabidopsis, the “effective dose to distinguish the sensitive plants from plants with average resistance” value is reported as 50 g ae/ha.

B1: 24DT02-t: truncated 24DT02 (SEQ ID NO: 4), amino acids from 1 to 295 of 24DT02 amino acid sequence (protein)
chain: MERHAMSNGKQIVRIEPLPGKTFGAVVTGVRLSELDEDTFSLLYREWLQYALLIFPAQYLTDSQQRDAASKFGCLVEGLEAVEISNLLPTGEVRAAPDDDMMKIIRGNMQWHQDNTYMPLQAKGALFSAKRVPSSGGETGFADMRAAWDALDTETQDRLANLSAYHSLAQSQKNLGEDVKSSDSEYIGYGLDVSTVPRRSLLKIHPETDRKTLAVGRHAFGVTGMAEQESTQFVSDLIDFAVADESRTYHHIWSEGDAILWDNRCLMHRACPWNFSQPRVMLHSRIAGDPSTEAA
modifications: 24DT02 truncated nucleotide sequence
Consider B1, for which the “resistance levels to 2,4-D dimethyl ammonium salt and agroxone, compared among the sequences” value in assay [1] is “didn't show significant differences”. For the same molecule, the “resistance levels against 2,4-D dimethyl ammonium salt and agroxone, compared among the sequences” value in assay [2] was “didn't show significant differences”.

B2: 24DT02: herbicide-resistant protein of 298 amino acids, SEQ ID NO: 2, encoded by nucleotide sequence SEQ ID NO: 1 (protein)
chain: MERHAMSNGKQIVRIEPLPGKTFGAVVTGVRLSELDEDTFSLLYREWLQYALLIFPAQYLTDSQQRDAASKFGCLVEGLEAVEISNLLPTGEVRAAPDDDMMKIIRGNMQWHQDNTYMPLQAKGALFSAKRVPSSGGETGFADMRAAWDALDTETQDRLANLSAYHSLAQSQKNLGEDVKSSDSEYIGYGLDVSTVPRRSLLKIHPETDRKTLAVGRHAFGVTGMAEQESTQFVSDLIDFAVADESRTYHHIWSEGDAILWDNRCLMHRACPWNFSQPRVMLHSRIAGDPSTEAALNS
modifications: 24DT02 amino acid sequence
For B2, in assay [1], the “resistance levels to 2,4-D dimethyl ammonium salt and agroxone, compared among the sequences” value is reported as “didn't show significant differences”. In addition, the “herbicide resistance conferred to plants” value is on record as “conferred herbicide resistance to individual Arabidopsis plants” in assay [1] (Arabidopsis T1 plants, 2,4-D dimethyl ammonium salt and agroxone 560 g ae/ha, Table 1 and FIG. 4); “conferred high resistance against herbicides to the transgenic maize plants” in assay [2] (transgenic maize plants, 2,4-D dimethyl ammonium salt and agroxone 8960 g ae/ha, Table 2). Besides, the “resistance levels against 2,4-D dimethyl ammonium salt and agroxone, compared among the sequences” value in assay [2] was “didn't show significant differences”.

B3: 24DT02-i: substituted 24DT02 (SEQ ID NO: 3), in which the Met267 was substituted with Leu (protein)
chain: MERHAMSNGKQIVRIEPLPGKTFGAVVTGVRLSELDEDTFSLLYREWLQYALLIFPAQYLTDSQQRDAASKFGCLVEGLEAVEISNLLPTGEVRAAPDDDMMKIIRGNMQWHQDNTYMPLQAKGALFSAKRVPSSGGETGFADMRAAWDALDTETQDRLANLSAYHSLAQSQKNLGEDVKSSDSEYIGYGLDVSTVPRRSLLKIHPETDRKTLAVGRHAFGVTGMAEQESTQFVSDLIDFAVADESRTYHHIWSEGDAILWDNRCLLHRACPWNFSQPRVMLHSRIAGDPSTEAALNS
modifications: 24DT02 substituted nucleotide sequence
On to B3, for which the “resistance levels to 2,4-D dimethyl ammonium salt and agroxone, compared among the sequences” value in assay [1] is “didn't show significant differences”. Also, the “resistance levels against 2,4-D dimethyl ammonium salt and agroxone, compared among the sequences” value in assay [2] is on record as “didn't show significant differences”.

B4: 24DT02-a: added 24DT02 (SEQ ID NO: 5), Ala, Leu and Val added after the 298th amino acid (protein)
chain: MERHAMSNGKQIVRIEPLPGKTFGAVVTGVRLSELDEDTFSLLYREWLQYALLIFPAQYLTDSQQRDAASKFGCLVEGLEAVEISNLLPTGEVRAAPDDDMMKIIRGNMQWHQDNTYMPLQAKGALFSAKRVPSSGGETGFADMRAAWDALDTETQDRLANLSAYHSLAQSQKNLGEDVKSSDSEYIGYGLDVSTVPRRSLLKIHPETDRKTLAVGRHAFGVTGMAEQESTQFVSDLIDFAVADESRTYHHIWSEGDAILWDNRCLMHRACPWNFSQPRVMLHSRIAGDPSTEAALNSALV
modifications: 24DT02 added nucleotide sequence
Take B4: the “resistance levels to 2,4-D dimethyl ammonium salt and agroxone, compared among the sequences” value in assay [1] is “didn't show significant differences”. The “resistance levels against 2,4-D dimethyl ammonium salt and agroxone, compared among the sequences” value in assay [2] is recorded as “didn't show significant differences”.

The record behind these values is US9462805B2, “Herbicide-resistant proteins, encoding genes, and uses thereof” (Beijing Dabeinong Technology Group Co., Ltd., priority 2012, dated 2016).
